Measured values published in PMC12014907.

Target: STAT3^136-705, P40763
Assay: thermal shift assay
Details: chain shown with the change; 25 μM phosphopeptides; parent: est. 54; read off a plot

Chain of STAT3^136-705, P40763 (P40763 136-705): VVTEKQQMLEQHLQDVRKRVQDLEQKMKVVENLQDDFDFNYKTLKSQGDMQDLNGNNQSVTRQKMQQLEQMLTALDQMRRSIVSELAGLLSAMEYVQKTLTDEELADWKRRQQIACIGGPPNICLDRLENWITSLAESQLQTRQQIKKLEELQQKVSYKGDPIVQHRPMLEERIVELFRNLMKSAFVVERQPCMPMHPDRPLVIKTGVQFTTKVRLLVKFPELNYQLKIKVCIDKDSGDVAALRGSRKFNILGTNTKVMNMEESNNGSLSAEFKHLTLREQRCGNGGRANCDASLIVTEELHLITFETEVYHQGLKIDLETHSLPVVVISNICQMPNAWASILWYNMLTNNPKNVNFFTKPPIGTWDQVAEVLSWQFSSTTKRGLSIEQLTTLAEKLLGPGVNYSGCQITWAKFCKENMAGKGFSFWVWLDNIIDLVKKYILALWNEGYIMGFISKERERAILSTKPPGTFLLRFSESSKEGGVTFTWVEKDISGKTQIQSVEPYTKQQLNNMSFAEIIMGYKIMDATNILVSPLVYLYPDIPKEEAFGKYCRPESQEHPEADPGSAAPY

SGYIHQVPSV [gp130 phosphopeptide R168I]
other: Tm of STAT3 with bound peptide (thermal shift): 55 °C
